Reference: US20210355194A1 (TWIST BIOSCIENCE, published 2021)

molecular target: T1, Acro SARS-CoV-2 (COVID-19) S1 protein (SARS-CoV-2, UniProt P0DTC2 16-685); experiment: SPR
T1 construct: also called SARS-CoV-2 S1

Binder | Kd [nM]
variant 6-52 (Fc fusion) VHH: EVQLVESGGGLVQPGGSLRLSCAASGDTYGSYWMGWFRQAPGKEREVVAAITSGGSTVYADSVKGRFTISADNSKNTAYLQMNSLKPEDTAVYYCARVDSRFDYWGQGTLVTVSS | 31.2
variant 6-2 (Fc fusion) VHH: EVQLVESGGGLVQPGGSLRLSCAASGFTMSSSWMGWFRQAPGKEREFVTVISGVGTSYADSVKGRFTISADNSKNTAYLQMNSLKPEDTAVYYCARGPDSSGYGFDYWGQGTLVTVSS | 29.9

molecular target: SARS-CoV-2 membrane protein on expressing cells (SARS-CoV-2, UniProt P0DTC5 1-222); experiment: not given

Binder | MFI Ratio
10-13 (VHH) VHH: EVQLVESGGGLVQPGGSLRLSCAASGGLTFSSNTMGWFRQAPGKEREFVASISSSGRTSYADSVKGRFTISADNSKNTAYLQMNSLKPEDTAVYYCARRVRRLWFRSYFDLWGQGTLVTVSS | 8.83
9-1 (VHH) VHH: EVQLVESGGGLVQPGGSLRLSCAASGRTFSRLAMGWFRQAPGKEREFVAAISRSGRSTSYADSVKGRFTISADNSKNTAYLQMNSLKPEDTAVYYCAARRSQILFTSRTDYEWGQGTLVTVSS | 8.19
10-18 (VHH) VHH: EVQLVESGGGLVQPGGSLRLSCAASGRMYNSYSMGWFRQAPGKEREFVARISPGGTFYADSVKGRFTISADNSKNTAYLQMNSLKPEDTAVYYCTTSARSGWFWRYFDSWGQGTLVTVSS | 8.06
10-45 (VHH) VHH: EVQLVESGGGLVQPGGSLRLSCAASGRTFSWYPMGWFRQAPGKEREFVASISWGGARTYYADSVKGRFTISADNSKNTAYLQMNSLKPEDTAVYYCARSTGPRGSGRYRAHWFDSWGQGTLVTVSS | 6.69
10-26 (VHH) VHH: EVQLVESGGGLVQPGGSLRLSCAASGRTFSGFTMSSTWMGWFRQAPGKEREFVAGIITNGSTNYADSVKGRFTISADNSKNTAYLQMNSLKPEDTAVYYCARRVAYSSFWSGLRKHMDVWGQGTLVTVSS | 5.2
10-22 (VHH) VHH: EVQLVESGGGLVQPGGSLRLSCAASGRTYYAMGWFRQAPGKEREFVGAIDWSGRRITYADSVKGRFTISADNSKNTAYLQMNSLKPEDTAVYYCARVRFSRLGGVIGRPIDSWGQGTLVTVSS | 4.47
10-48 (VHH) VHH: EVQLVESGGGLVQPGGSLRLSCAASGRTFRRYAMGWFRQAPGKEREFVAAINRSGSTEYADSVKGRFTISADNSKNTAYLQMNSLKPEDTAVYYCARQHQDFWTGYYTVWGQGTLVTVSS | 4.11
10-52 (VHH) VHH: EVQLVESGGGLVQPGGSLRLSCAASGRFFSICSMGWFRQAPGKEREFVAGINWRSGGSTYYADSVKGRFTISADNSKNTAYLQMNSLKPEDTAVYYCARGSGWWEYWGQGTLVTVSS | 4.11
10-40 (VHH) VHH: EVQLVESGGGLVQPGGSLRLSCAASGRTFSTYTMGWFRQAPGKEREFVARIWRSGGNTYYADSVKGRFTISADNSKNTAYLQMNSLKPEDTAVYYCARGVRGVFRAYFDHWGQGTLVTVSS | 3.78
9-8 (VHH) VHH: EVQLVESGGGLVQPGGSLRLSCAASGRTFRRYPMGWFRQAPGKEREFVAAISRSGGSTYYADSVKGRFTISADNSKNTAYLQMNSLKPEDTAVYYCAAKRLRSFASGGSYDWGQGTLVTVSS | 3.76
10-28 (VHH) VHH: EVQLVESGGGLVQPGGSLRLSCAASGSIFSIGMGWFRQAPGKEREFVARIWWRSGATYYADSVKGRFTISADNSKNTAYLQMNSLKPEDTAVYYCAAISIFGRLKWGQGTLVTVSS | 2.06
10-57 (VHH) VHH: EVQLVESGGGLVQPGGSLRLSCAASGRTFSRYAMGWFRQAPGKEREFVASITKFGSTNYADSVKGRFTISADNSKNTAYLQMNSLKPEDTAVYYCAKERESRFLKWRKTDWGQGTLVTVSS | 1.79
10-54 (VHH) VHH: EVQLVESGGGLVQPGGSLRLSCAASGRTFSSARMGWFRQAPGKEREFVAGINMISSTKYADSVKGRFTISADNSKNTAYLQMNSLKPEDTAVYYCAHFRRFLPRGYVDYWGQGTLVTVSS | 1.78
10-41 (VHH) VHH: EVQLVESGGGLVQPGGSLRLSCAASGRNLRMYRMGWFRQAPGKEREFVALISRVGVTSYADSVKGRFTISADNSKNTAYLQMNSLKPEDTAVYYCARGTSFFNFWSGSLGRVGFDSWGQGTLVTVSS | 1.75
10-42 (VHH) VHH: EVQLVESGGGLVQPGGSLRLSCAASGITIRTHAMGWFRQAPGKEREFVATISRSGGNTYYADSVKGRFTISADNSKNTAYLQMNSLKPEDTAVYYCTTAGVLRYFDWFRRPYWGQGTLVTVSS | 1.74
10-50 (VHH) VHH: EVQLVESGGGLVQPGGSLRLSCAASGRTLSTYNMGWFRQAPGKEREFVASISRFGRTNYADSVKGRFTISADNSKNTAYLQMNSLKPEDTAVYYCARRGKLSAAMHWFDPWGQGTLVTVSS | 1.72

Binder | MFI Ratio
10-31 (VHH) VHH: EVQLVESGGGLVQPGGSLRLSCAASGRTFGSYGMGWFRQAPGKEREFVATISIGGRTYYADSVKGRFTISADNSKNTAYLQMNSLKPEDTAVYYCARGSGSGFMWYHGNNNYDRWRYWGQGTLVTVSS | 1.66
10-47 (VHH) VHH: EVQLVESGGGLVQPGGSLRLSCAASGRPLRRYVMGWFRQAPGKEREFVAAITNGGSTKYADSVKGRFTISADNSKNTAYLQMNSLKPEDTAVYYCARGTPWRLLWFGTLGPPPAFDYWGQGTLVTVSS | 1.62
10-9 (VHH) VHH: EVQLVESGGGLVQPGGSLRLSCAASGIPFRSRTMGWFRQAPGKEREFVAGITGSGRSQYYADSVKGRFTISADNSKNTAYLQMNSLKPEDTAVYYCARGARIFGSVAPWRGGNYYGMDVWGQGTLVTVSS | 1.61
9-3 (VHH) VHH: EVQLVESGGGLVQPGGSLRLSCAASGRTFSRYAMGWFRQAPGKEREFVAAISRSGKSTYYADSVKGRFTISADNSKNTAYLQMNSLKPEDTAVYYCAASSVFSDLRYRKNPKWGQGTLVTVSS | 1.61
10-5 (VHH) VHH: EVQLVESGGGLVQPGGSLRLSCAASGRSLGIYRMGWFRQAPGKEREFVAAITSGGRKNYADSVKGRFTISADNSKNTAYLQMNSLKPEDTAVYYCAKRTIFGVGRWLDPWGQGTLVTVSS | 1.59
10-17 (VHH) VHH: EVQLVESGGGLVQPGGSLRLSCAASGRTFSIYAMGWFRQAPGKEREFVARITRGGITKYADSVKGRFTISADNSKNTAYLQMNSLKPEDTAVYYCARGLGWLLGYYWGQGTLVTVSS | 1.59
10-30 (VHH) VHH: EVQLVESGGGLVQPGGSLRLSCAASGRTFSSFRFRAMGWFRQAPGKEREFVALIFSGGSTYYADSVKGRFTISADNSKNTAYLQMNSLKPEDTAVYYCAREWGRWLQRGSYWGQGTLVTVSS | 1.57
10-11 (VHH) VHH: EVQLVESGGGLVQPGGSLRLSCAASGRNFRRNSMGWFRQAPGKEREFVAGISWSGARTHYADSVKGRFTISADNSKNTAYLQMNSLKPEDTAVYYCARVSRRPRSPPGYYYGMDVWGQGTLVTVSS | 1.56
10-43 (VHH) VHH: EVQLVESGGGLVQPGGSLRLSCAASGRTFRRYHMGWFRQAPGKEREFVAAITSGGRTNYADSVKGRFTISADNSKNTAYLQMNSLKPEDTAVYYCTTDGLRYFDWFPWASAFDIWGQGTLVTVSS | 1.55
10-19 (VHH) VHH: EVQLVESGGGLVQPGGSLRLSCAASGRTFRSYGMGWFRQAPGKEREFVASISRSGTTMYADSVKGRFTISADNSKNTAYLQMNSLKPEDTAVYYCARRGLLQWFGAPNSWFDPWGQGTLVTVSS | 1.54
9-10 (VHH) VHH: EVQLVESGGGLVQPGGSLRLSCAASGRMFSSRSMGWFRQAPGKEREFVALINRSGGSQFYADSVKGRFTISADNSKNTAYLQMNSLKPEDTAVYYCAARRWIPPGPIWGQGTLVTVSS | 1.52
10-29 (VHH) VHH: EVQLVESGGGLVQPGGSLRLSCAASGRTFTSYRMGWFRQAPGKEREFVAEISSSGGYTYYADSVKGRFTISADNSKNTAYLQMNSLKPEDTAVYYCARVGPLRFLAQRPRLRPDYWGQGTLVTVSS | 1.48
10-51 (VHH) VHH: EVQLVESGGGLVQPGGSLRLSCAASGRFFSTRVMGWFRQAPGKEREFVARIWPGGSTYYADSVKGRFTISADNSKNTAYLQMNSLKPEDTAVYYCARDRGIFGVSRWGQGTLVTVSS | 1.47
9-6 (VHH) VHH: EVQLVESGGGLVQPGGSLRLSCAASGRTFSRFAMGWFRQAPGKEREFVAAIRWSGGRTVYADSVKGRFTISADNSKNTAYLQMNSLKPEDTAVYYCAIEPGTIRNWRNRVPFARGNFGWGQGTLVTVSS | 1.47
10-44 (VHH) VHH: EVQLVESGGGLVQPGGSLRLSCAASGRTFRRYTMGWFRQAPGKEREFVAVISWSGGSTKYADSVKGRFTISADNSKNTAYLQMNSLKPEDTAVYYCARKGRWSGMNVWGQGTLVTVSS | 1.46
